System: VIP-BH3 BID fusion protein
Sequence (chain, as listed by the source): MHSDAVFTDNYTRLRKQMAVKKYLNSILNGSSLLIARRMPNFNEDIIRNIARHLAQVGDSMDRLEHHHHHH

Chain of recombinant human cathepsin D (chain, as listed by the source): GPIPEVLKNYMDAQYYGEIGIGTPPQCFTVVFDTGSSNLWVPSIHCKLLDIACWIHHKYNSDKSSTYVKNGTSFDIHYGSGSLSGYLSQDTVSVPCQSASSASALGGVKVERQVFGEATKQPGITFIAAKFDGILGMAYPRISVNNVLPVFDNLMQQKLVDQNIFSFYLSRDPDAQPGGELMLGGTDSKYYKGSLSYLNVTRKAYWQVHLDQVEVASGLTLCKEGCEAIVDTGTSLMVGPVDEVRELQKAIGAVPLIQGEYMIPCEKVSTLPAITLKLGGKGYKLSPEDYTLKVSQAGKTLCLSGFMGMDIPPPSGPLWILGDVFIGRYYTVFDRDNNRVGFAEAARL

Substance: recombinant human cathepsin D
- cleavage of fusion protein by cathepsin D at ˜400:1 (w/w), followed by mass spectrometry: The first cleavage occurred at the linker by around 30 minutes of treatment with the protease

— patent US20100184651
